Results: patent US20220251236A1 (Boehringer Ingelheim, published 2022)

Biological target: T1, Human DLL3-His (human, UniProt Q9NYJ7 27-492)
T1 construct: also called huDLL3-His; hu DLL3
T1 sequence: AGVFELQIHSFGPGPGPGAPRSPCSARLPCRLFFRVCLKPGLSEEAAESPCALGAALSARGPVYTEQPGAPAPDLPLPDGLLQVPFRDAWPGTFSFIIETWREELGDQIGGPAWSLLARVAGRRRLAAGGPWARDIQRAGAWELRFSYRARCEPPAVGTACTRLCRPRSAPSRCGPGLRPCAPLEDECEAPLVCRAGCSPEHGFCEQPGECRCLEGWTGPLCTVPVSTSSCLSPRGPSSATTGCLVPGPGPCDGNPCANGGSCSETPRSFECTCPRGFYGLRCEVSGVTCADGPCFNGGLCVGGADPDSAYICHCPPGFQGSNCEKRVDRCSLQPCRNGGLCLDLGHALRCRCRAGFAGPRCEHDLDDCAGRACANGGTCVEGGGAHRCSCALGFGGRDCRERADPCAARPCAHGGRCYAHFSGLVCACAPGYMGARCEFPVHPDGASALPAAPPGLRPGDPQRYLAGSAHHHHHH
Assay: SPR (ProteOn XPR36), bispecific captured on protein A/G, DLL3 as analyte, Example 4A
Experimental: The binding affinity of purified DLL3/CD3 bispecific constructs for recombinant human and cyno DLL3-ECD and Fc-fusion proteins of human and cyno CD3 εγ subunits was determined by Surface Plasmon Resonance (SPR), using a ProteOn XPR36 instrument (Bio-Rad). The running buffer and all dilutions (except where stated) were done in PBS-T-EDTA. The GLM sensor chip (Bio-Rad) was normalized and pre-conditioned as per the manufacturer's recommendations. The sensor chip was activated with equal mixture of EDC/s-NHS in the horizontal direction for 300 sec at a flow rate of 30 ul/min and immobilized with protein A/G (20 ug/ml in 10 mM acetate pH 4.5) in the horizontal direction for 300 sec at a flowrate of 30 ul/min resulting in ˜5000 RU of protein A/G on the surface. The sensor chip was deactivated with 1M ethanolamine HCl in the horizontal direction for 300 sec at a flowrate of 30 μl/min.
For binding kinetic determination to DLL3, bispecific molecules were captured individually on the protein A/G surface vertically for 250 sec at a flowrate of 25 μl/min. The baseline was stabilized by injecting PBS-T-EDTA for 60 sec at a flowrate of 40 μl/min horizontally. The analyte (hu DLL3 or cy DLL3) was injected horizontally over the captured antibody for 600 sec at a flowrate of 40 μl/min and a dissociation for 2700 sec.
The inter spot (interactions with sensor surface) and blank (PBS-T-EDTA) were subtracted from the raw data.

B1: DLL3#3/CD3#2 (bispecific antibody, human IgG1, kappa, lambda, L234A L235A)
chain 1: DIQMTQSPSAMSASVGDRVTITCRASQGISNYLVWFQQKPGKAPKRLIYAVSSLYSGVPSRFSGSGSGTEFTLTISSLQPEDFATYYCLQHDSYPYTFGQGTKLEIKRTVAAPSVFIFPPSDEQLKSGTASVVCLLNNFYPREAKVQWKVDNALQSGNSQESVTEQDSKDSTYSLSSTLTLSKADYEKHKVYACEVTHQGLSSPVTKSFNRGECGGGGSEGKSSGSGSESKSTEGKSSGSGSESKSTGGGGSQVQLVQSGAEVKKPGASVKVSCKASGYTFTSYYVHWVRQAPGQGLEWMVIINPGGGTTSYAQKFLGRVTMTRDTSTNTVYMELKSLRSEDTAVYYCARGEAVTGNYFYYGMDVWGQGTTVTVSSASTKGPSVFPLAPSSKSTSGGTAALGCLVKDYFPEPVTVSWNSGALTSGVHTFPAVLQSSGLYSLSSVVTVPSSSLGTQTYICNVNHKPSNTKVDKRVEPKSCDKTHTCPPCPAPEAAGGPSVFLFPPKPKDTLMISRTPEVTCVVVDVSHEDPEVKFNWYVDGVEVHNAKTKPREEQYNSTYRVVSVLTVLHQDWLNGKEYKCKVSNKALPAPIEKTISKAKGQPREPQVYTLPPSREEMTKNQVSLWCLVKGFYPSDIAVEWESNGQPENNYKTTPPVLDSDGSFFLYSKLTVDKSRWQQGNVFSCSVMHEALHNHYTQKSLSLSPG
chain 2: EAVVTQEPSLTVSPGGTVTLTCRSSTGAVTTSNYANWVQEKPGQLPRGLIGGTNKRAPWVPARFSGSLLGGKAALTLSGAQPEDEAEYFCALWYSNLWVFGGGTKLTVLGQPKAAPSVTLFPPSSEELQANKATLVCLISDFYPGAVKVAWKADGSPVNTGVETTTPSKQSNNKYAASSYLSLTPEQWKSHRSYSCQVTHEGSTVEKTVAPAECSGGGGSEGKSSGSGSESKSTEGKSSGSGSESKSTGGGGSEVQLVESGGGLVQPGGSLKLSCAASGFTFNTYAMNWVRQAPGKGLEWVARIRSKYINYATYYADSVKDRFTISRDDSKNTAYLQMNNLKTEDTAVYYCVRHGNFGNSYVSWFAYWGQGTLVTVSAASTKGPSVFPLAPSSKSTSGGTAALGCLVKDYFPEPVTVSWNSGALTSGVHTFPAVLQSSGLYSLSSVVTVPSSSLGTQTYICNVNHKPSNTKVDKRVEPKSCDKTHTCPPCPAPEAAGGPSVFLFPPKPKDTLMISRTPEVTCVVVDVSHEDPEVKFNWYVDGVEVHNAKTKPREEQYNSTYRVVSVLTVLHQDWLNGKEYKCKVSNKALPAPIEKTISKAKGQPREPQVYTLPPSREEMTKNQVSLSCAVKGFYPSDIAVEWESNGQPENNYKTTPPVLDSDGSFFLVSKLTVDKSRWQQGNVFSCSVMHEALHNRFTQKSLSLSPG
notes: Heterodimer of one DLL3 chain and one CD3 chain (scFab-Fc, knob-in-hole)
- Kd: < 0.01 nM
